Assay results as given in patent publication US10509035B2, “Antibodies, antibody drug conjugates and methods of use” (GAMAMABS PHARMA, priority 2015, dated 2019).
Entries after “also recorded” stand apart in the source; their conditions may differ.

Tests used:
[1] = target: T1, extracellular domain of AMHR-II receptor (AMHR-II-ECD-Fc) (Homo sapiens, UniProt Q16671); assay: ELISA binding to the extracellular domain of AMHR-II receptor
T1 construct: Fc (C); purchased R&D System
T1 sequence (Q16671 18-149 limits assumed): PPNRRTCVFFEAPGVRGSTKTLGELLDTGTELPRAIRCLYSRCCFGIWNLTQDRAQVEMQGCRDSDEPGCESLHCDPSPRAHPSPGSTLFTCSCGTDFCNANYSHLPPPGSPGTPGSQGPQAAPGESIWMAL
Protocol: The binding capacity of the anti-AMHR-II 3C23K antibodies was evaluated by ELISA. ELISA plates (96 wells, Maxisorp, NUnc) were coated overnight at +4° C. with 50 ng per well of AMHR-II-ECD-Fc (R&D System). Coated ELISA plates were blocked with PBS-BSA 4% for 2 hours at 37° C. and washed three times with PBS-Tween20 0.05%. […] The bound anti-AMHR-II antibodies were detected by adding HRP-conjugated F(ab′)2 goat anti-human F(ab′2) fragment specific (Interchim) diluted at 1:10000 and incubated for one hour at 37° C. Revelation was done with TMB (Sigma) and the reaction was stopped by adding H2SO4 1N (v:v). Absorbances were measured at 450 nm and binding data curves were analysis using GraphPad Prism.
The binding capacity of the anti-AMHR-II variants K4D24 and 6C59 antibodies was assayed by ELISA assay as the same manner as in example 3 with only minor changes. ELISA plates (96 wells, Maxisorp, NUnc) were coated overnight at +4° C. with 50 ng per well or 10 ng per well of AMHR-II-ECD-Fc (R&D System). K4D24, 6C59 and 3C23K were serially diluted from 4 μg/ml to 1 ng/ml. Absorbances were measured at 450 nm and binding data curves were analysis using four-parameter nonlinear regression fit from GraphPad Prism. FIGS. 15A-15B show the results.

[2] = tested on: COV434 AMHR-II transfected cell line; assay: Antibody internalization (flow cytometry and immunofluorescence imaging); format: cell-based; details: flow cytometry; K4D24 0.5 μg/ml, 6C59 0.3 μg/ml, 3C23K 10 μg/ml
Protocol: Antibody mediated internalization were assessed by flow cytometry analysis and by immunofluorescence imaging. Flow cytometry experiments was done on the two expressing AMHR-II cell lines: COV434 WT with low level of expression and COV434-AMHR-II transfected cell line with high level of expression. Briefly, 5×10^5 cells were incubated with 3C23K at 10 μg/ml and incubated 30 min at 4° C. After washes, DMEM/GlutaMax (Gibco) medium, cold or pre-warmed at 37° C., was added and incubated at 4° C. or 37° C. at different time points (15 min, 30 min and 60 min). Phycoerythrin-conjugated anti-human IgG antibody (1:200, Beckman-Coulter) was added for 30 min at 4° C. FACS analysis of the resuspended cells was done on a BD Accuri™ C6 flow cytometer (BD Bioscience). As depicted in FIGS. 9A and 9B, the internalization of the 3C23K observed at 37° C. is fast whatever the level of AMHR-II expression. For immunofluorescence imaging experiments, COV434 AMHR-II transfected cell line were grown on poly-D lysine coated glass coverslips overnight at 37° C. at a density of 75000 cells/cm^2. Cells were incubated with 3C23K directly labelled with Alexa Fluor 488 for 1H30 at 4° C. to carry out surface labelling. Cell surface bound antibodies were allowed to internalize by incubating cells in prewarmed medium at 37° C. At appropriate time points, coverslips were removed and cells were washed in PBS, then fixed in formaline (4%, 30 min at room temperature) and permeabilized (Triton X-100 0.5%, 5 min at room temperature). Nuclei were stained with DAPI (4′,6-diamidino-2-phenylindole) and coverslips were mounted on microscope slides and imaged with Leica DM5000 microscope (Leica Microsystems). Internalization was quantified by counting the number of visible vesicles in cell section at different incubation time using Image J software.
The internalization capacity of the K4D24 and 6C59 variants was assayed by fluorescence cytometry analysis in the same manner as in Example 8 except for the concentrations used. Due to their strong binding, K4D24 and 6C59 were used at 0.5 μg/ml and 0.3 μg/ml respectively whereas the 3C23K was used at 10 μg/ml.

[3] = target: T2, AMHR2 receptor expressed at the surface membrane of the COV434 WT cell line (Homo sapiens, UniProt Q16671); assay: FACS binding to the low expressing COV434 WT cell line; details: variants 25, 10, 5 μg/ml; 3C23K 50, 25, 10 μg/ml
T2 construct: assayed on the low expressing AMHR-II COV434 WT cell line; endogenous in cells; host or cells: COV434 WT
T2 sequence (Q16671 18-573): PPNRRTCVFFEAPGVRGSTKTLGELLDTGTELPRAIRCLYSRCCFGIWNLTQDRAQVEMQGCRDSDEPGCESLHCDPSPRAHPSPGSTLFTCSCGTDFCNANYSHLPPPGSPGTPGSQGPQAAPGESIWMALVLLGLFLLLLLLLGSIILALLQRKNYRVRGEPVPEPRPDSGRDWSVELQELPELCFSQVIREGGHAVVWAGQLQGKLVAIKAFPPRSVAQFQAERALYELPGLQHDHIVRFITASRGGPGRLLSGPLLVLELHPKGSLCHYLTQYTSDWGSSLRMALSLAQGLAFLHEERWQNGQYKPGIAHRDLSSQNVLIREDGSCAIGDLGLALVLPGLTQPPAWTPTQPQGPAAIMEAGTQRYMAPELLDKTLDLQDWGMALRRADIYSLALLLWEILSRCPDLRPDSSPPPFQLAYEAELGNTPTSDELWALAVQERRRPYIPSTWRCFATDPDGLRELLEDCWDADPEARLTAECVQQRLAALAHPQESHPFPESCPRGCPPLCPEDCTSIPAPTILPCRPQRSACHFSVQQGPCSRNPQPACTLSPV
Protocol: The COV434 AMHR-II transfected and the COV434 WT cell lines were maintained in DMEM/GlutaMax (Gibco) supplemented with 10% FBS, penicillin 100 U/ml and Streptomycin 100 μg/ml. Geneticin at 666 μg/ml was added for the COV434 AMHR-II transfected cell line. […] After washes, Phycoerythrin-conjugated anti-human IgG antibody (1:200, Beckman-Coulter) was added for 1 hour at room temperature. FACS analysis of the resuspended cells was done on a BD Accuri™ C6 flow cytometer (BD Bioscience).
The binding capacity of the anti-AMHR-II antibody variants K4D24 and 6C59 to the AMHR-II expressing cell lines was evaluated by flow cytometry analysis in the same manner as example 4. FACS analysis with COV434-AMHR-II transfected cell line is described in FIG. 16. The Kapparent of the K4D24 and 6C59 variants were improved by a factor of 20 and 40 fold respectively as compared to the 3C23K (0.098 μg/ml and 0.05 μg/ml versus 2.2 μg/ml). The binding capacity of these variants was also assayed on the low expressing AMHR-II COV434 WT cell line. In this setting the binding was evaluated with three concentrations of variants (25, 10 and 5 μg/ml) and three concentrations of 3C23K (50, 25 and 10 μg/ml).

[4] = coating 10 ng/well AMHR-II recombinant protein
[5] = coating 50 ng/well AMHR-II recombinant protein

B1: K4D24: 3C23K variant; VH H-Q1R (SEQ ID NO: 22), VL SEQ ID NO: 36 (antibody, V domains shown)
VH: RVRLVQSGAEVKKPGASVKVSCKASGYTFTSYHIHWVRQAPGQRLEWMGWIYPGDDSTKYSQKFQGRVTITRDTSASTAYMELSSLRSEDTAVYYCTRGDRFAYWGQGTLVTVSS
VL: DIQMTQSPSTLSASVGDRVTITCRASSSVRYIAWYQQKPGKAPKLLTYPTSSLKSGVPSRFSGSGSGTEFTLTISSLQPDDFATYYCLQWSSYPWTFGGGTKVEIK
modifications: K4D-24/6C59; 3C23K
- binding compared with 3C23K [1, 4]: Improved binding; also recorded: stronger
- binding compared with 3C23K [1, 5]: no major difference of binding
- internalization compared with 3C23K [2]: retain the same internalization potential
- binding compared to 3C23K on the COV434 WT cell line [3]: strongly improve the level of detection; also recorded: stronger binding

B2: 6C59: 3C23K variant; VH H-Q1R (SEQ ID NO: 22), VL L-S27P, L-S28P (SEQ ID NO: 40) (antibody, V domains shown)
VH: RVRLVQSGAEVKKPGASVKVSCKASGYTFTSYHIHWVRQAPGQRLEWMGWIYPGDDSTKYSQKFQGRVTITRDTSASTAYMELSSLRSEDTAVYYCTRGDRFAYWGQGTLVTVSS
VL: DIQMTQSPSTLSASVGDRVTITCRASPPVRYIAWYQQKPGKAPKLLTYPTSSLKSGVPSRFSGSGSGTEFTLTISSLQPDDFATYYCLQWSSYPWTFGGGTKVEIK
modifications: K4D-24/6C59; LS27P, L-S28P
- binding compared with 3C23K [1, 4]: Improved binding; also recorded: stronger
- binding compared with 3C23K [1, 5]: no major difference of binding
- internalization compared with 3C23K [2]: retain the same internalization potential
- binding compared to 3C23K on the COV434 WT cell line [3]: strongly improve the level of detection; also recorded: stronger binding
